According to publication PMC5105168, “AKAP95 regulates splicing through scaffolding RNAs and RNA processing factors” (Nature Communications, 2016):

B1: purified Flag-tagged AKAP95 (natural protein)
chain: not shown
notes: AKAP95 (AKAP8) cDNA in pFastBac1; also called F-AKAP95; FLAG-AKAP95; source: sf9 cells (baculovirus), purified (anti-FLAG M2 agarose, FLAG peptide elution)
B2: GST-hnRNP H1 (natural protein, human (cDNA from 293 cells), UniProt P31943 1-449, looked up)
chain: MMLGTEGGEGFVVKVRGLPWSCSADEVQRFFSDCKIQNGAQGIRFIYTREGRPSGEAFVELESEDEVKLALKKDRETMGHRYVEVFKSNNVEMDWVLKHTGPNSPDTANDGFVRLRGLPFGCSKEEIVQFFSGLEIVPNGITLPVDFQGRSTGEAFVQFASQEIAEKALKKHKERIGHRYIEIFKSSRAEVRTHYDPPRKLMAMQRPGPYDRPGAGRGYNSIGRGAGFERMRRGAYGGGYGGYDDYNGYNDGYGFGSDRFGRDLNYCFSGMSDHRYGDGGSTFQSTTGHCVHMRGLPYRATENDIYNFFSPLNPVRVHIEIGPDGRVTGEADVEFATHEDAVAAMSKDKANMQHRYVELFLNSTAGASGGAYEHRYVELFLNSTAGASGGAYGSQMMGGMGLSNQSSYGGPASQQLSGGYGGGYGGQSSMSGYDQVLQENSSDFQSNIA
notes: hnRNP H1, cDNA amplified from 293 cell cDNAs, cloned into pGEX-4T-1; source: E. coli BL21 (DE3), purified on glutathione sepharose 4B without elution

Columns and labels:
[1] = target: T1, purified AKAP95-MBP fusion protein (human, UniProt O43823 1-692); experiment: pull-down; purified MBP or AKAP95-MBP bound to amylose resin, purified F-AKAP95 in solution, BC200, 0.05% NP40, immunoblot; settings: both partners purified
T1 construct: AKAP95 (AKAP8); source: sf9 cells (baculovirus), purified on amylose resin, kept on the resin
T1 sequence (O43823 whole entry, the tested form may be a part): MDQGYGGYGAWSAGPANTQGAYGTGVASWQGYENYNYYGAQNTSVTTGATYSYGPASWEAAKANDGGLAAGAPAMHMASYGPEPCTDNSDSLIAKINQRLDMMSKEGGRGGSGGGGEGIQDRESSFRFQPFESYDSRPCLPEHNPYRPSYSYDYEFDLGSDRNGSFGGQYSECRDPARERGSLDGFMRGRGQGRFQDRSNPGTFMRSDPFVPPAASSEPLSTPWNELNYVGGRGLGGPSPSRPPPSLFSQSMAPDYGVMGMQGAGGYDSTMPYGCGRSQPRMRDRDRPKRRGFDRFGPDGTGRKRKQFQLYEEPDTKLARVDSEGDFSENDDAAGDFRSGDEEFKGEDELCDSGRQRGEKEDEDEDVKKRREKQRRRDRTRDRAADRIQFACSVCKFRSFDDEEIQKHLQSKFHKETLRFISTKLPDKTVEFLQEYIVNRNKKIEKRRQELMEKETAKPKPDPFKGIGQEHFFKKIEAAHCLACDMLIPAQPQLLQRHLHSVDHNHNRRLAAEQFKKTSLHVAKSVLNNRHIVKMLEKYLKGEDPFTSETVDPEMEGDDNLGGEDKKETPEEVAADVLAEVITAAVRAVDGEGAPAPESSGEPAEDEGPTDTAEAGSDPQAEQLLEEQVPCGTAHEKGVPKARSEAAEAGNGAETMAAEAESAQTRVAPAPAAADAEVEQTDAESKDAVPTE

[2] = target: B1; experiment: pull-down; GST fusions bound to glutathione resin, purified F-AKAP95 proteins in solution, BC200, 0.1% NP40, immunoblot; settings: both partners purified

Row | Binder | binding result [1] | binding result [2]
1 | B1 | binds | 
2 | B2 |  | binds
